Experimental data reported in patent US20060234940.

Experiments:
Glucagon = Glucagon (UniProt P01275)
His^1-Ser^2-NPY = His^1-Ser^2-NPY (UniProt P01303)
[Gly]^2-glucagon = [Gly]^2-glucagon (UniProt P01275)
[1] = system: peptides of the growth hormone releasing factor (GRF) family

Sequence of Glucagon (P01275 53-81): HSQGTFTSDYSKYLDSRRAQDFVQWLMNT
Sequence of [Gly]^2-glucagon (P01275 whole entry, looked up): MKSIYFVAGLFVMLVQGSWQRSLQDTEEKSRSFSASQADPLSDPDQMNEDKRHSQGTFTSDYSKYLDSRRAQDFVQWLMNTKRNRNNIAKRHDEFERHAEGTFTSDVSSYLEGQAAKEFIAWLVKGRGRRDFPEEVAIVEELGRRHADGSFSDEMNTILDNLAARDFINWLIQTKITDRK

| Substance | Km [M] of DP IV-catalyzed hydrolysis (Glucagon) [M] | Km [M] of DP IV-catalyzed hydrolysis (His^1-Ser^2-NPY) [M] | Km [M] of DP IV-catalyzed hydrolysis ([Gly]^2-glucagon) [M] | hydrolysis (MALDI-TOF MS, capillary zone electrophoresis) [1] |
| --- | --- | --- | --- | --- |
| DP IV | 3.8e-06 | 6.8e-05 | 2.2e-05 |  |
| recombinant human DP IV, wild type |  |  |  | All peptides were hydrolyzed by porcine DP IV, recombinant human DP IV or DP IV activity of the human serum |
